Series [1] deals with T1, alpha-thrombin (Homo sapiens, UniProt P00734;P00734 P00734:328-363,P00734:364-622). Put plainly: 6MAP fluorescence at saturating protein.
The target in series [2] is T1, alpha-thrombin. Put plainly: 3MI signal of streptavidin-aptamer complex; AlexaFluor 430 up 1.9-fold.
In series [3] the target is T1, alpha-thrombin. Put plainly: 3MI fluorescence at saturating protein.
Series [4] concerns the target T1, alpha-thrombin. Put plainly: 3MI signal, 350 nm excitation; AlexaFluor 430 FRET signal up 2.9-fold.
The target in series [5] is PDGF-BB (platelet-derived growth factor B homodimer) (UniProt P01127 P01127:82-190). Put plainly: saturating protein. Conditions: chain copies: 2 stated, three-helix junction.
Chain of PDGF-BB (platelet-derived growth factor B homodimer) (P01127 82-190, one chain of several): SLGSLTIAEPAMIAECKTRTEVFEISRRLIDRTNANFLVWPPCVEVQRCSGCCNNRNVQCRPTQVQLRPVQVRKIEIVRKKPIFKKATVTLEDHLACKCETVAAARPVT

B1: thrombin aptamer 6MAP-7 (ssDNA)
DNA: GGTTGGTGTGGTTGG
modifications: n at position 7 is 4-amino-6-methyl-pteridone (6MAP) replacing T [7 (6MAP replacing T)]
B1: the binding signal in series [1] was 32.9 fold fluorescence increase.

B2: thrombin aptamer 3MI-7 biotin (ssDNA)
DNA: GGTTGGTGTGGTTGG
modifications: n at position 7 is 3-methylisoxanthopterin; 5' 40-atom linker [7 (3-methylisoxanthopterin replacing T); 5' 40-atom linker with biotin left out]
Take B2: in series [2], the binding signal is ~7.1 fold fluorescence increase.

B3: thrombin aptamer 3MI-7 (ssDNA)
DNA: GGTTGGTGTGGTTGG
modifications: n at position 7 is 3-methylisoxanthopterin replacing T [7 (3-methylisoxanthopterin replacing T)]
Regarding B3, the binding signal in series [3] was 9.7 fold fluorescence increase.

B4: thrombin aptamer 3MI-7 AlexaFluor 430 (ssDNA)
DNA: GGTTGGTGTGGTTGG
modifications: n at position 7 is 3-methylisoxanthopterin; 5' 21-atom amino linker [7 (3-methylisoxanthopterin replacing T); 5' 21-atom amino linker with AlexaFluor 430 left out]
As to B4, the binding signal in series [4] is ~7.5 fold fluorescence increase.

CACAGGCTACGGCACGTAGAGCATCACCATGATCCTGTG (ssDNA, n at position 22 is 6MAP replacing C [22 (6MAP replacing C)]) [PDGF-B aptamer 6MAP-22]: the binding signal in series [5] (label: 6MAP) is 6.7 fold fluorescence increase.

B5: PDGF-B aptamer 3MI-22 (ssDNA)
DNA: CACAGGCTACGGCACGTAGAGCATCACCATGATCCTGTG
modifications: n at position 22 is 3-methylisoxanthopterin replacing C [22 (3-methylisoxanthopterin replacing C)]
Regarding B5, the binding signal in series [5] (label: 3MI) is 2.5 fold fluorescence increase.

Values taken from patent US20090054250, “Methods to create fluorescent biosensors using aptamers with fluorescent base analogs” (published 2009).
